Experimental data published in the Immune Epitope Database (IEDB).
pKd: −log10 of the molar value.

Legend:
[1] = target: HLA-A*02:11; experiment: IEDB peptide-MHC binding, purified MHC/direct/fluorescence; filed as Kd, often an IC50 or EC50 that approximates it; ≥ and ≤ were set here for values at or beyond the usual limits of such assays
[2] = target: HLA-A*02:03; experiment: as above
[3] = target: HLA-A*69:01; experiment: as above
[4] = target: HLA-B*18:01; experiment: as above
[5] = target: HLA-B*39:01; experiment: as above
[6] = target: HLA-B*51:01; experiment: as above
[7] = target: HLA-A*02:12; experiment: as above
[8] = target: HLA-A*03:01; experiment: as above
[9] = target: HLA-B*35:01; experiment: as above
[10] = target: HLA-A*02:16; experiment: as above
[11] = target: HLA-B*27:03; experiment: as above
[12] = target: HLA-A*02:19; experiment: as above
[13] = target: HLA-B*46:01; experiment: as above
[14] = target: HLA-A*24:03; experiment: as above
[15] = target: HLA-A*02:01; experiment: as above
[16] = target: HLA-B*15:01; experiment: as above
[17] = target: HLA-A*26:01; experiment: as above
[18] = target: HLA-B*07:02; experiment: as above
[19] = target: HLA-B*57:01; experiment: as above
[20] = target: HLA-A*68:02; experiment: IEDB peptide-MHC binding, purified MHC/competitive/fluorescence; filed as Kd, often an IC50 or EC50 that approximates it; ≥ and ≤ were set here for values at or beyond the usual limits of such assays
[21] = target: HLA-A*69:01; experiment: as above; conditions: source organism: Choclo virus
[22] = target: HLA-B*18:01; experiment: as above; conditions: source organism: Choclo virus
[23] = target: HLA-B*39:01; experiment: as above; conditions: source organism: Choclo virus
[24] = target: HLA-B*51:01; experiment: as above; conditions: source organism: Choclo virus
[25] = target: HLA-B*15:17; experiment: as above; conditions: source organism: Choclo virus
[26] = target: HLA-B*27:03; experiment: as above; conditions: source organism: Choclo virus
[27] = target: HLA-B*46:01; experiment: as above; conditions: source organism: Choclo virus
[28] = target: HLA-A*24:03; experiment: as above; conditions: source organism: Choclo virus
[29] = target: HLA-A*02:01; experiment: as above; conditions: source organism: Choclo virus
[30] = target: HLA-A*26:01; experiment: as above; conditions: source organism: Choclo virus
[31] = target: HLA-B*57:01; experiment: as above; conditions: source organism: Choclo virus
[32] = target: HLA-B*57:01; experiment: IEDB peptide-MHC binding, purified MHC/competitive/radioactivity; filed as Kd, often an IC50 or EC50 that approximates it; ≥ and ≤ were set here for values at or beyond the usual limits of such assays
[33] = target: HLA-B*15:01; experiment: as above; conditions: source organism: Dengue virus 2 Jamaica/1409/1983
[34] = target: HLA-A*01:01; experiment: IEDB peptide-MHC binding, purified MHC/competitive/fluorescence; filed as Kd, often an IC50 or EC50 that approximates it; ≥ and ≤ were set here for values at or beyond the usual limits of such assays; conditions: source organism: Influenza A virus (A/swine/Finistere/127/99(H3N2))
[35] = target: HLA-B*15:17; experiment: IEDB peptide-MHC binding, purified MHC/direct/fluorescence; filed as Kd, often an IC50 or EC50 that approximates it; ≥ and ≤ were set here for values at or beyond the usual limits of such assays; conditions: source organism: Burkholderia mallei ATCC 23344
[36] = target: HLA-A*29:02; experiment: as above; conditions: source organism: Burkholderia mallei ATCC 23344
[37] = target: HLA-A*68:02; experiment: as above
[38] = target: HLA-A*68:02; experiment: IEDB peptide-MHC binding, purified MHC/competitive/radioactivity; filed as Kd, often an IC50 or EC50 that approximates it; ≥ and ≤ were set here for values at or beyond the usual limits of such assays; conditions: source organism: Dengue virus 1 Brazil/97-11/1997
[39] = source organism: Vibrio parahaemolyticus AQ3810
[40] = source organism: Mycobacterium tuberculosis str. Haarlem
[41] = source organism: Dengue virus 2 Jamaica/1409/1983
[42] = source organism: Cryptosporidium parvum Iowa II
[43] = source organism: Burkholderia mallei ATCC 23344
[44] = source organism: Burkholderia mallei

EASTWLDIF
pKd [1, 39]: ≤ 4.70 | pKd [2, 39]: ≤ 4.70 | pKd [3, 39]: ≤ 4.70 | pKd [4, 39]: ≤ 4.70 | pKd [5, 39]: ≤ 4.70 | pKd [6, 39]: ≤ 4.70 | pKd [7, 39]: ≤ 4.70 | pKd [8, 39]: ≤ 4.70 | pKd [9, 39]: 7.80 | pKd [10, 39]: ≤ 4.70 | pKd [11, 39]: ≤ 4.70 | pKd [12, 39]: ≤ 4.70 | pKd [13, 39]: ≤ 4.70 | pKd [14, 39]: ≤ 4.70 | pKd [15, 39]: ≤ 4.70 | pKd [16, 39]: 6.76 | pKd [17, 39]: ≤ 4.70 | pKd [18, 39]: ≤ 4.70 | pKd [19, 39]: ≤ 4.70

EILWDVIPF
pKd [2, 40]: ≤ 4.70 | pKd [5, 40]: ≤ 4.70 | pKd [6, 40]: ≤ 4.70 | pKd [7, 40]: ≤ 4.70 | pKd [8, 40]: ≤ 4.70 | pKd [9, 40]: 8.52 | pKd [10, 40]: ≤ 4.70 | pKd [11, 40]: ≤ 4.70 | pKd [12, 40]: ≤ 4.70 | pKd [13, 40]: ≤ 4.70 | pKd [14, 40]: ≤ 4.70 | pKd [15, 40]: ≤ 4.70 | pKd [16, 40]: 6.72 | pKd [17, 40]: ≤ 4.70 | pKd [18, 40]: 5.19 | pKd [19, 40]: ≤ 4.70

ESAEVEVYV
pKd ([20]; source organism: Vibrio vulnificus YJ016): ≥ 10.00

HWMDATFNI
pKd ([1]; source organism: Choclo virus): ≤ 4.70 | pKd ([2]; source organism: Choclo virus): ≤ 4.70 | pKd ([7]; source organism: Choclo virus): ≤ 4.70 | pKd ([8]; source organism: Choclo virus): ≤ 4.70 | pKd ([10]; source organism: Choclo virus): ≤ 4.70 | pKd ([12]; source organism: Choclo virus): ≤ 4.70 | pKd [21]: ≤ 4.70 | pKd [22]: ≤ 4.70 | pKd [23]: ≤ 4.70 | pKd [24]: ≤ 4.70 | pKd [25]: ≤ 4.70 | pKd [26]: ≤ 4.70 | pKd [27]: ≤ 4.70 | pKd [28]: ≥ 10.00 | pKd [29]: ≤ 4.70 | pKd [30]: ≤ 4.70 | pKd [31]: ≤ 4.70

ISQGAGWSL
pKd [32, 41]: 6.33

ISRMLINRF
pKd [33]: 6.75 | pKd [32, 41]: 7.80

LASIDLKY
pKd [34]: 5.46

LPLESCFGV
pKd [1, 42]: ≤ 4.70 | pKd [2, 42]: ≤ 4.70 | pKd [4, 42]: ≤ 4.70 | pKd [6, 42]: 6.45 | pKd [7, 42]: ≤ 4.70 | pKd [8, 42]: ≤ 4.70 | pKd [11, 42]: ≤ 4.70 | pKd [12, 42]: ≤ 4.70 | pKd [13, 42]: ≤ 4.70 | pKd [14, 42]: ≤ 4.70 | pKd [16, 42]: ≤ 4.70 | pKd [17, 42]: ≤ 4.70 | pKd [19, 42]: ≤ 4.70

LTSRENLLLG
pKd ([32]; source organism: Dengue virus 3 Martinique/1243/1999): 6.27

QHAWPLPPL
pKd [2, 43]: ≤ 4.70 | pKd [4, 43]: ≤ 4.70 | pKd [6, 43]: ≤ 4.70 | pKd [7, 43]: ≤ 4.70 | pKd [8, 43]: ≤ 4.70 | pKd [10, 43]: ≤ 4.70 | pKd [35]: ≤ 4.70 | pKd [11, 43]: ≤ 4.70 | pKd [36]: ≤ 4.70 | pKd [37, 43]: ≤ 4.70 | pKd [12, 43]: ≤ 4.70 | pKd [13, 43]: ≤ 4.70 | pKd [15, 43]: ≤ 4.70 | pKd [16, 43]: ≤ 4.70 | pKd [17, 43]: ≤ 4.70 | pKd [19, 43]: ≤ 4.70

QTSGTTTIFA
pKd [38]: 8.67 | pKd ([32]; source organism: Dengue virus 1 Brazil/97-11/1997): 6.34

RVVRPWGSY
pKd [1, 44]: ≤ 4.70 | pKd [2, 44]: ≤ 4.70 | pKd [3, 44]: ≤ 4.70 | pKd [4, 44]: ≤ 4.70 | pKd [5, 44]: ≤ 4.70 | pKd [6, 44]: ≤ 4.70 | pKd [7, 44]: ≤ 4.70 | pKd [10, 44]: ≤ 4.70 | pKd [11, 44]: ≤ 4.70 | pKd [37, 44]: ≤ 4.70 | pKd [12, 44]: ≤ 4.70 | pKd [13, 44]: ≤ 4.70 | pKd [14, 44]: ≤ 4.70 | pKd [15, 44]: ≤ 4.70 | pKd [17, 44]: ≤ 4.70

STYWLMAGL
pKd ([20]; source organism: Yersinia pestis Nepal516): 9.30
